Experimental data taken from the DeepSol protein solubility set.

Experiment: soluble on expression in E. coli; label from the status in PepcDB or PDB records

With “MGSDKIHHHHHHMSEKTLYQKLQNIHKKVPYIQKSQQASQYSYAGSSDVLGTIHGLMDEEKLILIPQITNKNTETSQNRKGSTVIFTELMMTMTWVNSDNPDEKLECQWYAQGIDTAGEKGVGKALTYGEKYFLLKFFNVATDDLDPDAFQENVKAQKAPELINDEQKKTLKELFNSMASVTKTPIEKVSKAYLKKVNSDSIEKLQEDTAIGLIELVTNQLNKQTEKAGK” as the sequence, how does the “soluble on expression in E. coli” value read?
Its value is “not soluble”.

With “MGSDKIHHHHHHMSEQQCTELKVLDTVPFGQVSGDAQFYALRLEKPRWKSWKPGQFVMIRPQGWALDMLWARPFSICRVSSRDLVLFFQAVGRGTRRLADLKAGDTVVVWGPLGNSFAVEPETPTLMLAGGIGIAPFIGYAHTHPKPWNLWMEFGHRMPLGCYPFESINEKIMADNHQEECPDDLLRFIERLEKRIAEYAEQDGLVLACGPTPFLRTVQRFALQYGARCQLSLETRMACGVGGCLGCVTSTTEKHHLHHTQAGKAQVCNNGPVFWADQVDLDKA” as the sequence, how does the “soluble on expression in E. coli” value read?
The value was “not soluble”.

Which “soluble on expression in E. coli” value does the source give for “MGSDKIHHHHHHMSETYPILIHLGEKLNRVIVGQSQLIQQLLVGLLSGGHIILEGVPGTGKTLLVKVLARLIQADFHRVQLTPDVLPSDITGTNIFDLNNRNFTLKKGPVFTEVLLADEINRTPPKTQAALLEAMEEMQVTLDGESLPLPDLFWVIATQNPLEFEGTYPLPEAQLDRFLFKLVVDYPDQTAEKQMLLNRQAGFAARRSDINSLQPIATVTDILEARQAVKAVKVSESIIDYLLALVRTSRQYPDLALGASPRAAGAWLQTSQAVAWLEGRDFVTPDDIKAVASPLLRHRLILKPEAMLDGLQIDAVIAAVVNQVAVPR” here?
Its value is “not soluble”.

Which “soluble on expression in E. coli” value does the source give for “MGSDKIHHHHHHMSFFDTLSGLSREQLRMALYSTTPAQVETAIEGEQGNLGHLLALLSPAAEEYLEPMAQRAAALTRQRFGHNIGLYLPLYLSNLCANECDYCGFTMSNKLKRKVLSHDELAAEMAVIKPQGFDSILLVSGEHETKVGIEYFADILPLVKAEFSHVAMEVQPLSREHYEILVEKGLDAVMLYQETYDPETYRRHHLRGNKQDYGYRLASPERIAQAGVDKIGLGVLLGLDDWRMDALLMGYHLDYLERRFWRSRYSISLPRLRPCVGGITPKVQLTDKGLVQLICAFRLFNEQLEISLSTRETPSLRDNLLGLGITQMSAGSRTEPGGYVNPAAQLDQFEISDERSAAEVASVLRSRGFTPVWKDWEAGWIGAG” here?
Its value is “not soluble”.

With “MGSDKIHHHHHHMSGPQGRLAIIAGSGMLPVYVAEAARAAGEDPFILPLKNEADQRWDGFQSAVIGVGDMAGLSSLIKRHGIKRVVMSGGVKKRPNFKEIHVNLRFLVKLPFAVKTLLSGGDDAVLKMVIQLIESQGCRVVGAHEIAPQLLAELGPLGSSRPTDDDRRDIAAAAKAADALGRLDVGQGAVSVGGRIVALEGVEGTDRMLQRVAELRSEGRISSRRSGVLVKLCKPQQDIRADLPTIGQSTIENAARAGLSGIAVQAGRALLLQRQETLRQADAAGIFISGIELAPEGEAWLS” as the sequence, how does the “soluble on expression in E. coli” value read?
Its value is “not soluble”.

Which “soluble on expression in E. coli” value does the source give for “MGSDKIHHHHHHMSHTEVKLKIPFGNKLLDAVCLVPNKSLTYGIILTHGASGDMNLPHLMSLASHLASHGFFCLRFTCKGLNIVHRIKAYKSVLNYLKTSGEYKLAGVFLGGRSMGSRAAASVMCHIEPDDGDDFVRGLICISYPLHHPKQQHKLRDEDLFRLKEPVLFVSGSADEMCEKNLLEKVAQKMQAPHKIHWIEKANHSMAVKGRSTNDVFKEINTQILFWIQEITEMDKKCH” here?
Its value is “not soluble”.

Which “soluble on expression in E. coli” value does the source give for “MGSDKIHHHHHHMSHTITVIGLGAGDLEQLPLGVYRLILNQDHLYVRTKDHPVIEELIGEGHSFTFFDSIYEQHETFEAVYDAIVAELLEAAKSKEILYAVPGHPLVAERTVQLLLEAEREGRVTVKILGGQSFLDPMFSALKIDPVEGCQVLDGTMLSRDEVHVTQHIVICQVYDQMIASHVKLTLMELLPDDYEVTVATAVGTKNEKLETVPLYELDRVTTISNLTAVYVPPVEDEVILYQDFRTLRQIIATLRGPDGCPWDKKQTHQSLKKYLLEEAYEVLEAIDEENEDHLVEELGDLLLQVLLHAQIGEDDGWFQIEDVIRSISEKMIRRHPHVFGERQVEDAEDVVETWDEIKKAEKGEDQASTSILGKIPKGLPSLMLAFELQKKAAKVGFDWAEVEPMWAKLDEEMHEFKEEIQAGHSQEMAKEFGDVLFVLVNIGRFYNIYAEEALHRTNEKFKRRFQSIEQAITAKGDTLEESSLEEMDVLWNQAKESESQGE” here?
The value was “not soluble”.

For “MGSDKIHHHHHHMSIELIDLHPAPADLKQLVQSGFKCQPRQLPAWVLYDAKGSRLFAQICEQPEYGLTRTEIKLLEENAPAIAKAVGDGVIVEFGIGNARKVSPLLNAIRPSTFVALDISQAALKDSLTRLASTYPMVSILGICCDHSSMQALPPHPRLEGVRCIGFFPGSSLGNFTPKEAVAVLRRFRKLLGGGPLLLGLDQPRDPIQLEAAYNDEAGISAAFARNLLHRLNRELEADFRPDQFSYRARWQEEFHRIEMALVSRCSQTIVIDNSTWSFSAGEPLITEYSVKYNPQEAARLAEKAGWRINQRWHDSADSLSLHLLEPSD”, which “soluble on expression in E. coli” value is on record?
The value was “not soluble”.

Which “soluble on expression in E. coli” value does the source give for “MGSDKIHHHHHHMSIIMERQRGNQLLRIISEYMTNLKEKGQKLAKDNTMENLVNFTPRYNLIKSYLDDVERALDRSGLCYVKITFITLSKLLTGWSPIYFITEVPLAWDMILDTPYIAGSEIKGIVKNYFKEVTSNDKVESCLYGDEGKMGKVIFFNAYPIDGKNVLTYDIITPHYNGAKDEYNVKPIPIKFLAINKGITFKTYLAFDNKELNECGKDSLYLLLKTMIFSMRIGWGRKVTRGYGSLDIKEMDVKCHGE” here?
The value was “not soluble”.

Which “soluble on expression in E. coli” value does the source give for “MGSDKIHHHHHHMSIQTPIRGLRSFCVASKCLSFKHAAAQLFLTPSAVSHQIKQLEEQLGFMLFKRNTRSIELTSSGKQFYQSIQPIIHQLESTISEFTHNQQNHTIVISLPEFFASELFIPRLSEWSEKNPSINLQLETVKAGSEPSQIADLSIVLANGKPNASIVQELFPIRYAAACNKKLYKKLKNSGFKALKNTPLILHRSRPWSWHQWAENLGVNDFDPKQIIQFDSMFGVARAAQQGMGIALVPLPMSKTWFSEQLLVKLFDEELNTNDRYYLIQHENMESKVELTLFANWVKETFMTDYL” here?
The value was “not soluble”.

For “MGSDKIHHHHHHMSISEQCVIEIDKYIDYFKKNTSQPNILAKLFKTDSSYYVYDTGTNKVLTCGEYEYSILGKIIDNKFDEISRINDDADKSGFYEALENVRQAIEKEDILRGGKEWKFVSKGHFEELDKKLNYELDQITLELTEKCNLRCRYCIYNESYEHKRNFGNKDMPIEIAEKAIDYANLHSGKEKGVGVTFYGGEPLVNFKLLKHSIEYSRKVIKDKKLTFSLTSNLTLMTPEIATYLASIENLTILCSIDGPEEIHDSYRKDINGNGTFKRAIRGLKYLIEAFGDKANKAVMMNMVFTPPYSIEKVNKIETFINSLDWLPKGLRISMTYPSTGSVDDTPPKGCEKNYGMELIQWSESKYKSELKSDGKIDMFNEEFVVHPILRIHGRRISAKSESGYPVNGCCIPGSRKLYVTVDGNFQICERINGSPIIGNVFNGIDENKIKNEVIDEFINKSIKDCSRCWAARLCNVCYSHCYTDGKLDMKEKKRYCIRSRERALRSLVFYHKCAEINPEKLKYLNKIEVS”, which “soluble on expression in E. coli” value is on record?
Its value is “not soluble”.

For “MGSDKIHHHHHHMSIVGNVENLINGVGELWNKYVKHEFILKMRDGSLPLDIFRYYLIQDGKYVEDMLRALLIASSKGPIDKVTKILNLVFSSRDKGLETHGKLYSKLDISRDVIVKTGYNLINYAYTRHLYYYANLDWNKFLVAWTPCMFGYSIVGDYVIDSPNEVYKTWASFYASTEYKKRIEAILYALDEVSITEDLLNIFINSVRFEIGFWDASLRKDPTVY”, which “soluble on expression in E. coli” value is on record?
Its value is “not soluble”.

For “MGSDKIHHHHHHMSIYRKIDRNKIQFDFIVHKTGKNFFEDEILKLGGRIYRLPNKRKHPFKYKQEFLNVIKNYKIIHVHSVYAFTYYEVKWARQCQKSVILHSHNSDAKLLRKIIHYLFKHLQNHYVSVRLSPSKQAAKWMFNEGHDKVVYLYNGFDTTKFQFDMNSRIEIREQLGLANNDYIIGCVGRLDWQKDPIYLLRLFEKLKANDNAYKLIFIGDGSYRQTLERETHQKGLVNDVIFTGSVSNVPEYLSALDIFVLPTRYEGLGISLIEAQINGLPVFTNKDVPKEAVINQNMYLLDKGDSELWVDAINKELNVINLKKRKVNLSDFNQYNIETVVKKLQNIYLQLLS”, which “soluble on expression in E. coli” value is on record?
Its value is “not soluble”.

For “MGSDKIHHHHHHMSKENIFDALKSGKIDYVRVEFVDILGNTKGRSLRRAEFENVINDNKGVDYPESLALMDYKDRPIKSRYEDIIAIPDLNTFVAIPYLERTARVLSFLAQPDGLPYPYCSRSILNKAIEKLKEAGYTLQVSFEPTFYLLNSALNPADYSKAFSLEGLLEQQNFLKLLIKYLEEIDIKVETINKHYGPGQYEVKLSQKPVLEAADSLISSREVIRDTAKMNNVIATFMPKPFKDYPSSSMDITLSLQTVDGKDIMYDPNDSKGIGLSKIAYNFISGILEHLPSILSIAAPTVNSYKRFKEVVTPNMPGIGSERHYIVRLPSYYKDTHQVEFRLADPLANPYILLASMIYAGLDGIERNLMANVNEYYGTLPQTLKESLSRLENDTYMKYNLGQDLISIYINIKNIEIEEYESQITEWERDYYLKAGW”, which “soluble on expression in E. coli” value is on record?
Its value is “not soluble”.

With “MGSDKIHHHHHHMSKIEELPPSDTDDHSYSSKPGDVFLAFVDAPVKETDDILVEDSFIGGEPKWLHPDSEPPAELLKCGACKSADNMKLLLQAFSPLDDEQMSAIQQRLGINNMSYINPQDDRVLYVFLCTECQRKGNSVRCIRGVKKNKNVDSLSEKMASTSLEKDFQINPFDLSNNSDSKCNAFSSNPFGGANANPFGADSINSNISQSKDEGKKKESATVSAKTARKLHDLQKDKEYDGNKCFKSCLLYVEEETFKNKKPAHLQLPKNLKIDKEALDLTGDEDLEKDPIKLDPRTEKLSKFLDDDTFQKFQEVVGYNPLQVLRYDLGGKPLLYAETKVDILSTVPRPGYNPSSQRIFEMQLMPKMIFDLEEVVSVDNGMEWGTILVFTDVENYMPEFDEHGVGYVEECVKVQWESRT” as the sequence, how does the “soluble on expression in E. coli” value read?
Its value is “not soluble”.

For “MGSDKIHHHHHHMSKIFAQDTDCSFLIEQAVKAPSGHNTQPWTFRIKETGIDILPDFTKTLPVVDPDNRELFVSLGCATENLCVAAAHKGYETMVSIAENGTIHIELTKQDSDTPSPLFPHISVRQTNRSVYDGNTIPVNDIVALGEKSDMEPCVGAHFFKNGTREFDAISEMVCEGNSIQMRDKKFKEELQQWMRYNKKHQDATRDGLSYAVFGAPNLSRFIAKAIITRLINEKSQNRNDRRKIASSSHFVLFTTSNNTVVQWIKLGRALEHILLKATGMGISHAYMNQPNEVQGLSGKMAEILGIEDEYPTVLIRLGYGSKMPYSLRRSVQSCIIPNSFD”, which “soluble on expression in E. coli” value is on record?
Its value is “not soluble”.

With “MGSDKIHHHHHHMSKNIKTPTNQKVLTNVAVVRMKKTGKRFEIACYKNKVVNWRNKSEKDIDEVLQTHTVFSNVSKGQLSKKEELIAAFGIEDQLEIYSRQRRLASVGKRASGGFRSIAERGSFFLLKNVSQLIASMVVNPETKRPVPPSVIDKALQEMHFSLKPNRSSKQQALDAIPKLRETLKIERAKMKIRVAIPTKEAKSVHTKLKTLFSDVEVDDWQDGSLEMVGLIEPGSFRALDDLVRNETKGHGRLEILSLKDVVEGELQIS” as the sequence, how does the “soluble on expression in E. coli” value read?
Its value is “not soluble”.

For “MGSDKIHHHHHHMSKTRYYLEQCIPEMDDLVEKGLFTKNEVSLIMKKRTDFEHRLNSRGSSINDYIKYINYESNVNKLRAKRCKRILQVKKTNSLSDWSIQQRIGFIYQRGTNKFPQDLKFWAMYLNYMKARGNQTSYKKIHNIYNQLLKLHPTNVDIWISCAKYEYEVHANFKSCRNIFQNGLRFNPDVPKLWYEYVKFELNFITKLINRRKVMGLINEREQELDMQNEQKNNQAPDEEKSHLQVPSTGDSMKDKLNELPEADISVLGNAETNPALRGDIALTIFDVCMKTLGKHYINKHKGYYAISDSKMNIELNKETLNYLFSESLRYIKLFDEFLDLERDYLINHVLQFWKNDMYDLSLRKDLPELYLKTVMIDITLNIRYMPVEKLDIDQLQLSVKKYFAYISKLDSASVKSLKNEYRSYLQDNYLKKMNAEDDPRYKILDLIISKL”, which “soluble on expression in E. coli” value is on record?
The value was “not soluble”.
